# Test results: article PMC8405986
# Assays:
# [1] = molecular target: NS3-4A protease Q80K, single-chain proteolytic domain (NS4A21-32-GSGS-NS3 3-181) (hepatitis C virus)
# [2] = molecular target: NS3-4A protease Q80K-A91S, single-chain proteolytic domain (NS4A21-32-GSGS-NS3 3-181) (hepatitis C virus)
# [3] = molecular target: NS3-4A protease Q80K-A91S-S174N, single-chain proteolytic domain (NS4A21-32-GSGS-NS3 3-181) (hepatitis C virus)
# [4] = molecular target: NS3-4A protease Q80K-A91T, single-chain proteolytic domain (NS4A21-32-GSGS-NS3 3-181) (hepatitis C virus)
# [5] = molecular target: NS3-4A protease Q80K-A91T-S174N, single-chain proteolytic domain (NS4A21-32-GSGS-NS3 3-181) (hepatitis C virus)
# [6] = molecular target: NS3-4A protease Q80K-S174N, single-chain proteolytic domain (NS4A21-32-GSGS-NS3 3-181) (hepatitis C virus)
# [7] = molecular target: NS3-4A protease WT, single-chain proteolytic domain (NS4A21-32-GSGS-NS3 3-181) (hepatitis C virus)
substance,measurement,setting,value
viral polyprotein substrate derived from the NS4A/4B cleavage site (SensoLyte 520 HCV; Anaspec) (peptide),KM (μM) of cleavage of the NS4A/4B FRET peptide substrate by purified protease (FRET-based protease assay),[1],1.44 µM
same,KM (μM) of cleavage of the NS4A/4B FRET peptide substrate by purified protease (FRET-based protease assay),[2],0.56 µM
same,KM (μM) of cleavage of the NS4A/4B FRET peptide substrate by purified protease (FRET-based protease assay),[3],8.16 µM
same,KM (μM) of cleavage of the NS4A/4B FRET peptide substrate by purified protease (FRET-based protease assay),[4],0.48 µM
same,KM (μM) of cleavage of the NS4A/4B FRET peptide substrate by purified protease (FRET-based protease assay),[5],0.67 µM
same,KM (μM) of cleavage of the NS4A/4B FRET peptide substrate by purified protease (FRET-based protease assay),[6],0.14 µM
same,KM (μM) of cleavage of the NS4A/4B FRET peptide substrate by purified protease (FRET-based protease assay),[7],2.71 µM
